{
  "source": "patent US20190389973A1",
  "about": "(Y BIOLOGICS, published 2019)",
  "binders": {"B1": {"name": "anti-VEGFA AB (antibody, V domains shown)", "VH": "QVTLKESGPTMVKPTQTLTLTCTFSGFSLSTSGVAVGWIRQPPGQALEWLALIYWDNDKRYSPSLKNRLTVAKDTSKSQVVLTMTNMDPMDTATYYCAHGDGWLFDFWGQGTLVTVSS", "VL": "QPVLTQPPSVSGAPGQRVTISCTGSNSNIGAGHDVHWYQQLPGAAPKVVIYGNTNRASGVPERFSGSKSATSASLAITGLQAEDEADYYCQSYDNSLSGYVFGTGTKVTVL", "notes": "The sheet calls it 'parantal antibody'; also called anti-VEGFA antibody; F6 (in-house)"}},
  "key": {"[1]": {"molecular_target": "VEGFA", "sequence (P15692 whole entry)": "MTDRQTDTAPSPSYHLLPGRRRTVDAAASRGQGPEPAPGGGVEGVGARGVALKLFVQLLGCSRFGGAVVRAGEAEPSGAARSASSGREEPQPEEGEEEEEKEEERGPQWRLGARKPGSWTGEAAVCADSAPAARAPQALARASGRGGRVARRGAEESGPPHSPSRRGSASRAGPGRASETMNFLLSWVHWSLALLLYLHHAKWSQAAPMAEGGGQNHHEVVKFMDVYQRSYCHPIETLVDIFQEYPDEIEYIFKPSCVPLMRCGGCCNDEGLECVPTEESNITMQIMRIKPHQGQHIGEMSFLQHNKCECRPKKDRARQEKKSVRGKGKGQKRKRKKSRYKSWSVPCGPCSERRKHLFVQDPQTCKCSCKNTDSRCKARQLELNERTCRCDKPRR", "assay": "ELISA on coated VEGFA", "description": "(§1) The affinity of Fv2mabs consisting of the tandem Fv combinations of anti-TNF-α and anti-VEGFA; and anti-TNF-α and anti-IL17A was measured by using ELISA method. Antigens such as TNF-α, VEGFA, and IL-17A, were fixed on an immune-plate at a concentration of 100 ng/well (96 well) by using pH 7.4 PBS as a coating buffer through a reaction at 4° C. overnight. Each well was once washed with PBST 200 μl, and then a surface blocking reaction was performed at room temperature with 5% skim milk for one to two hours. Subsequently, after washing each well twice with PBST 200 μl, a serial dilution was performed with an appropriate bispecific Fv2mab to measure and a control parental antibody from an appropriate concentration in an interval of ½ to ⅕ for a reaction at room temperature for one to two hours. Then, each well was washed three times with PBST 200 μl to remove unbound antibodies, and a dilution was performed with horseradish peroxidase (HRP)-conjugated anti-human-Fc-HRP (Millipore, USA) at a ratio of 1:3000 for a reaction at room temperature for one hour. Then, each well was washed three times with PBST 200 μl to remove unbound detection antibodies. A color reaction of HRP was induced by using TMB solution (GEhealthcare, USA) in a volume of […], and the reaction was terminated by using a stop solution (2.5 M H2SO4, 100 μl/well)."}, "[2]": {"molecular_target": "T1, TNF-α (UniProt P01375 77-233)", "T1 construct": "Soluble antigen used as analyte in the OCTET assay and coated in ELISA; also called TNF-a", "T1 sequence (P01375 77-233 limits assumed)": "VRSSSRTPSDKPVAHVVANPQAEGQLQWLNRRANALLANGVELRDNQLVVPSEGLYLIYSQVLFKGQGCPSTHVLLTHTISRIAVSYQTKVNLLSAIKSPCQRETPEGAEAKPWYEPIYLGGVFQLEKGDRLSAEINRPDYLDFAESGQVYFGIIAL", "assay": "ELISA on coated TNF-α", "description": "as §1"}},
  "data": [
    {"binder": "B1", "values": [
      {"measurement": "EC50 (read off the curve)", "setting": "[1]", "value": "~300", "unit": "pM"},
      {"measurement": "binding result", "setting": "[2]", "value": "binds"}
    ]}
  ]
}
